Source: patent US20230042913A1 (COUNCIL OF THE QUEENSLAND INSTITUTE OF MEDICAL RESEARCH, published 2023)

T1: mouse RANKL transiently expressed by HEK-293 cells (mouse, UniProt O35235 1-316)
T1 construct: whole, on cells; also called muRANKL
T1 sequence (looked up): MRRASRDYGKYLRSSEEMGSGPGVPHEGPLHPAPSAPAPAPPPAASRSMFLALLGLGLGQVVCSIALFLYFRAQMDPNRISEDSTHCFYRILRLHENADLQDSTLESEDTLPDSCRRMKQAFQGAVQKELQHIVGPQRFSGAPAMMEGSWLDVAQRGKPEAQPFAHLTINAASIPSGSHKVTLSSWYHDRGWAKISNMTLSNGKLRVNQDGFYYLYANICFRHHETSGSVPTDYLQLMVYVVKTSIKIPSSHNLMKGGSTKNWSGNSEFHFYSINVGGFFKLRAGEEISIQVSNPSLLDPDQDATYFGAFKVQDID

T2: mouse PD-1 transiently expressed by HEK-293 cells (mouse, UniProt Q02242 25-288)
T2 construct: whole, on cells; also called muPD-1
T2 sequence (looked up): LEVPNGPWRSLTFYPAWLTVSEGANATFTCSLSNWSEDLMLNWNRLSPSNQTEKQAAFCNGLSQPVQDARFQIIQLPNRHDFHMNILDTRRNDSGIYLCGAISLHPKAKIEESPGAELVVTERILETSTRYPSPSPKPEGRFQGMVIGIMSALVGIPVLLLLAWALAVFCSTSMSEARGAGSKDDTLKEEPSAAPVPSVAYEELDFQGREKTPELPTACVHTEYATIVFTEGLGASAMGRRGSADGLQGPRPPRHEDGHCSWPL


Tests used:
[1] = biological target: T1, mouse RANKL transiently expressed by …; assay: flow cytometry competition: blocking of biotinylated RANK-Fc binding to muRANKL on transfected HEK-293 cells
Description: FIG. 29 is a graphical representation showing antibody competition of RANKL-RANK binding. HEK-293 cells transiently transfected with mouse RANKL were incubated with various concentrations of either anti-RANKL/PD-1 bispecific, anti-RANKL mAb IK22-5, rat IgG2a isotype control or human IgG1 isotype control for 30 minutes on ice. Secondly, cells were incubated with 2.5 μg of biotinylated recombinant murine RANK-Fc for an additional 30 minutes on ice. After two washes with FACS buffer (PBS+10% FCS), a final incubation with Streptavidin-APC for extra 30 minutes on ice. Samples and data were analyzed on a Fortessa 4 (BD Biosciences) flow cytometer and analyzed with FlowJo v10 software (Tree Star, Inc.). Representative FACS plots and summary data of inhibition of RANK-Fc binding of two independent experiments are shown.

[2] = biological target: T2, mouse PD-1 transiently expressed by …; assay: flow cytometry competition: blocking of biotinylated PD-L1-Fc binding to muPD-1 on transfected HEK-293 cells
Description: FIG. 31 is a graphical representation showing antibody competition of PD-1/PD-L1 binding. HEK-293 cells transiently transfected with mouse PD-1 were incubated with various concentrations of either anti-RANKL/PD-1 bispecific, anti-PD-1 mAb RMP1-14, rat IgG2a isotype control or human IgG1 isotype control for 30 minutes on ice. Secondly, cells were incubated with 2.5 μg of biotinylated recombinant murine PD-L1-Fc for an additional 30 minutes on ice. After two washes with FACS buffer (PBS+10% FCS), a final incubation with Streptavidin-APC for extra 30 minutes on ice. Samples and data were analyzed on a Fortessa 4 (BD Biosciences) flow cytometer and analyzed with FlowJo v10 software (Tree Star, Inc.). Representative FACS plots and summary data of inhibition of PD-L1-Fc binding of two independent experiments are shown.

[3] = biological target: T2, mouse PD-1 transiently expressed by …; assay: summary sentence of Example 25

Binder	IC50 [1] [µg/mL]	binding result [2]	binding result [3]
anti-RANKL mAb IK22-5 (rat IgG2a) (antibody, V domains shown, Rat IgG2a monoclonal antibody; also called anti-muRANKL antibody (IK22-5 rat IgG2a)) VH: QVQLKESGPGLVLSSATLSLTCTVSGFSLTNYDVSWIRHLPGKGLEWMGGVWLSGNTEYNSDFKSRLSISRDISKSQVFLKMSNLKIEDTGTYYCARDIGTTSDYWGQGVTVTVSS VL: DIQVTQSPSFLSASVGDRVTFNCKTSQNINKYLAWYQAKFGEGPKLLIFNADSLQSGIPPRFSGSGSGTDFTLTISGLQPEDFATYFCLQYNSWPTFGSGTKLEIK	1.1		
anti-PD-1 mAb RMP1-14 (rat IgG2a) (antibody, V domains shown, Rat IgG2a monoclonal antibody; also called anti-muPD-1 antibody (RMP1-14 rat IgG2a)) VH: EVQLQESGPGLVKPSQSLSLTCSVTGYSITSSYRWNWIRKFPGNRLEWMGYINSAGISNYNPSLKRRISITRDTSKNQFFLQVNSVTTEDAATYYCARSDNMGTTPFTYWGQGTLVTVSS VL: DIVMTQGTLPNPVPSGESVSITCRSSKSLLYSDGKTYLNWYLQRPGQSPQLLIYWMSTRASGVSDRFSGSGSGTDFTLKISGVEAEDVGIYYCQQGLEFPTFGGGTKLELK		binds	
bispecific anti-RANKL/PD-1 antibody (IK22-5/RMP1-14) (bispecific antibody, also called RMP1-14 CH-CL X IK22/5 WT bispecific; anti-RANKL/PD-1 bispecific) heavy 1: QVQLKESGPGLVLSSATLSLTCTVSGFSLTNYDVSWIRHLPGKGLEWMGGVWLSGNTEYNSDFKSRLSISRDISKSQVFLKMSNLKIEDTGTYYCARDIGTTSDYWGQGVTVTVSSASTKGPSVFPLAPSSKSTSGGTAALGCLVKDYFPEPVTVSWNSGALTSGVHTFPAVLQSSGLYSLSSVVTVPSSSLGTQTYICNVNHKPSNTKVDKKVEPKSCDKTHTCPPCPAPELLGGPSVFLFPPKPKDTLMISRTPEVTCVVVAVSHEDPEVKFNWYVDGVEVHNAKTKPREEQYNSTYRVVSVLTVLHQDWLNGKEYKCKVSNKALPAPIEKTISKAKGQPREPQVYTLPPCRDELTKNQVSLWCLVKGFYPSDIAVEWESNGQPENNYKTTPPVLDSDGSFFLYSKLTVDKSRWQQGNVFSCSVLHEALHNHYTQKSLSLSPGK light 1: DIQVTQSPSFLSASVGDRVTFNCKTSQNINKYLAWYQAKFGEGPKLLIFNADSLQSGIPPRFSGSGSGTDFTLTISGLQPEDFATYFCLQYNSWPTFGSGTKLEIKRTVAAPSVFIFPPSDEQLKSGTASVVCLLNNFYPREAKVQWKVDNALQSGNSQESVTEQDSKDSTYSLSSTLTLSKADYEKHKVYACEVTHQGLSSPVTKSFNRGEC heavy 2: EVQLQESGPGLVKPSQSLSLTCSVTGYSITSSYRWNWIRKFPGNRLEWMGYINSAGISNYNPSLKRRISITRDTSKNQFFLQVNSVTTEDAATYYCARSDNMGTTPFTYWGQGTLVTVSSRTVAAPSVFIFPPSDEQLKSGTASVVCLLNNFYPREAKVQWKVDNALQSGNSQESVTEQDSKDSTYSLSSTLTLSKADYEKHKVYACEVTHQGLSSPVTKSFNRGECDKTHTCPPCPAPELLGGPSVFLFPPKPKDTLMISRTPEVTCVVVAVSHEDPEVKFNWYVDGVEVHNAKTKPREEQYNSTYRVVSVLTVLHQDWLNGKEYKCKVSNKALPAPIEKTISKAKGQPREPQVCTLPPSRDELTKNQVSLSCAVKGFYPSDIAVEWESNGQPENNYKTTPPVLDSDGSFFLVSKLTVDKSRWQQGNVFSCSVLHEALHNHYTQKSLSLSPGK light 2: DIVMTQGTLPNPVPSGESVSITCRSSKSLLYSDGKTYLNWYLQRPGQSPQLLIYWMSTRASGVSDRFSGSGSGTDFTLKISGVEAEDVGIYYCQQGLEFPTFGGGTKLELKASTKGPSVFPLAPSSKSTSGGTAALGCLVKDYFPEPVTVSWNSGALTSGVHTFPAVLQSSGLYSLSSVVTVPSSSLGTQTYICNVNHKPSNTKVDKKVEPKSC	2.6		binds
